Reference: US20220411495A1, “POSITIVE ALLOSTERIC MODULATORS OF THE CALCIUM-SENSING RECEPTOR” (VIB VZW, priority 2019, published 2022)
Residue numbers refer to the chain shown, from its start.

Molecular target: T1, human CaSR wild type (hCaSR WT) (Homo sapiens, UniProt P41180, E1011Q)
T1 construct: mGlu5 signal peptide (N, cleaved yes); expressed in transfected cells
T1 sequence (P41180 20-1078 E1011Q): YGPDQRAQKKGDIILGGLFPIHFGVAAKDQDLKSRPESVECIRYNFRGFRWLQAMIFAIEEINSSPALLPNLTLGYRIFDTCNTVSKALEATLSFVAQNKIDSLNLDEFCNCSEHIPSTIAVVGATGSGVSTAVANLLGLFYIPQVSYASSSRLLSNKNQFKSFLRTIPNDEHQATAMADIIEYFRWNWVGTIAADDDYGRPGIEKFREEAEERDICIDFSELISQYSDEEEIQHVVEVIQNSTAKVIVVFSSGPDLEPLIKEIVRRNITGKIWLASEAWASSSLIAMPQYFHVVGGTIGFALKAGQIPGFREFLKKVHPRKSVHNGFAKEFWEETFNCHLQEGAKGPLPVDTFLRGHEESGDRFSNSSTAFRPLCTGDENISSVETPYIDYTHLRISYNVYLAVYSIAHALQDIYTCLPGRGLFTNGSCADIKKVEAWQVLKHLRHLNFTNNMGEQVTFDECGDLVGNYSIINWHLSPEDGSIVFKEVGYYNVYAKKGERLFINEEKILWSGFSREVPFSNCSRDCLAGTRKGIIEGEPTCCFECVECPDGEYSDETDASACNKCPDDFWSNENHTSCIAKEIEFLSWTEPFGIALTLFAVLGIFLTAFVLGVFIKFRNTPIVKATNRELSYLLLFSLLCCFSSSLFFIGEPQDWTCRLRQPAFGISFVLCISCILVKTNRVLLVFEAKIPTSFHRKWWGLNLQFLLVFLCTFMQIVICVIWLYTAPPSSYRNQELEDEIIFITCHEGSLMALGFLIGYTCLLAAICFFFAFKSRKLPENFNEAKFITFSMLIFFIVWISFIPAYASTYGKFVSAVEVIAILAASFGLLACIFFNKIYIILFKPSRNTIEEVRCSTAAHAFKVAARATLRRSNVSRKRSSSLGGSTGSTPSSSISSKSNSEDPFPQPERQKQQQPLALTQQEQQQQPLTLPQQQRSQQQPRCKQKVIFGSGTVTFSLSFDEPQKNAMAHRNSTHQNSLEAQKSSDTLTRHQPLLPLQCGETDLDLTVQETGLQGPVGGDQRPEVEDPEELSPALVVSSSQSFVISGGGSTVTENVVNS
Assay: IP1 accumulation assay, Flp-In HEK293 HA-hCaSR WT cells
Format: cell-based
Settings: for Effect on Ca2+ concentration-response curve (IP1): increasing concentrations of PAM; for PAM activity in IP1 accumulation screen: fixed nanobody concentration 5 μM, 30 min pre-incubation
Experimental: Nanobodies were successfully purified by immobilized metal ion affinity chromatography (IMAC) and size exclusion chromatography (SEC) prior to pharmacological characterization (FIG. 1). Each nanobody was initially screened for Gq/11 activity in the Cisbio IP1 accumulation assay as this is the primary signaling pathway of CaSR (Chavez-Abiega et al., 2020). Whole HEK293 HA-hCaSR WT cells were pre-incubated for 30 minutes at 37° C. with a fixed nanobody concentration (5 μM) prior to stimulation with the endogenous ligand Ca^2+. The well characterized positive allosteric modulator (PAM) chemical NPS R-568 and negative allosteric modulator (NAM) chemical NPS 2143 were added as reference compounds. […] No nanobodies with agonist or NAM activity were observed when all nanobodies screened in the absence or in the presence of EC80 Ca^2+, respectively (FIGS. 4A and 4B). […] Except for CaSR Nb5, the same nanobodies acted as PAMs when ERK1/2 phosphorylation was measured in the presence of EC20 Ca^2+ (FIG. 2B). Again, none of the nanobodies elicited an agonist or NAM response (FIGS. 5B and 5C).
All cell lines utilized in this study were grown at 37° C. and 5% CO2. The HEK293A (RRID: CVCL_6910) and stable Flp-In HEK293 cells were cultured in Dulbecco's Modified Eagle Medium (DMEM, #31966021) supplemented with 10% dialyzed Fetal Bovine Serum (dFBS) and 1% 10,000 units/mL penicillin and 10,000 μg/mL streptomycin mixture (pen/strep). The stable Flp-In CHO cells were cultured in F-12K medium (#21127022) supplemented with 10% dFBS and 1% pen/strep. Additionally, the stable Flp-In HEK293 and Flp-In CHO cell lines were cultured in the presence of respectively 200 and 500 μg/mL hygromycin B. For pharmacological characterization, Flp-In HEK293 HA-hCaSR WT cells were seeded in poly-D-lysine-coated clear 96 well tissue culture plates (Corning, Corning, N.Y., USA) at a density of 50,000 cells/well 18 h prior to assay. Experiments with HA-rCaSR WT and HA-hCaSR S170A required transient transfection of HEK293A cells 24 h prior to assay. DNA construct and Lipofectamine 2000 were diluted in Opti-MEM and mixed together after 5 minutes incubation at room temperature. For HA-rCaSR WT, 30 ng/well rCaSR DNA diluted in 25 μL/well Opti-MEM was mixed with 0.25 μL/well Lipofectamine 2000 in 25 μL/well Opti-MEM. For HA-hCaSR S170A, 40 ng/well […] DNA diluted in 25 μL/well Opti-MEM was mixed with 0.25 μL/well Lipofectamine 2000 in 25 μL/well Opti-MEM. The DNA:Lipofectamine 2000 mixtures were incubated 20 minutes at room temperature after which 50 μL/well was added to a poly-D-lysine-coated clear 96 well tissue culture plate. Next, 100 μL/well of a 400,000 cells/mL HEK293A cell solution prepared in culture media was added and the plate was placed at 37° C. and 5% CO2 (final cell density 40,000 cells/well).
Inositol monophosphate (IP1) accumulation was measured using the commercially available HTRF® IP1 accumulation kit (Cisbio Bioassays, Codolet, France) and an EnVision multimode plate reader (PerkinElmer, Waltham, Mass., USA). Unless stated otherwise, the cells were washed once with 100 μL/well assay buffer and stimulated for 30 minutes at 37° C. with 50 μL/well ligand(s) diluted in assay buffer supplemented with 20 mM LiCl. Following stimulation, the cells were washed once with 100 μL/well and lysed for 30 minutes at room temperature with 30 μL/well lysis buffer provided with the kit. The lysed cells were diluted 1:2 with assay buffer after which 10 μL/well was pipetted to a white 384-well OptiPlate (PerkinElmer, Waltham, Mass., USA). Next, 10 μL of a detection solution consisting of 2.5% IP1-d2 conjugate and 2.5% anti-IP1 antibody diluted in assay buffer was added to each well. Fluorophore emissions were measured after the plate was stored in the dark for 1 h. The 615/665 nm emission ratios measured upon excitation at 340 nm were converted to IP1 concentrations with an IP1 standard curve according to the manufacturer's instructions.

[1] = IP1 accumulation at EC20 Ca2+, three independent experiments in triplicate

Molecule: COc1cccc([C@@H](C)NCCCc2ccccc2Cl)c1 [NPS R-568, reference compound]
- Need for pre-incubation for PAM activity (IP1) (5 μM, with or without 30 minutes pre-incubation at 37° C., EC20 Ca2+): did not require pre-incubation
- IP1 accumulation in the absence of added Ca2+ (1:1 ratio, total 10 μM, alone = combined with inactive Nb7): did not induce IP1 accumulation
- Max. response (fold over basal ± S.E.M.), human ortholog (IP1 accumulation at EC20 Ca2+): 3.89 ± 0.07 fold over basal
- EC50 (IP1 accumulation at EC20 Ca2+, three independent experiments in triplicate, read-out: Potency (pEC50 ± S.E.M.), human ortholog (converted)): 120 nM

Molecule: C[C@@H](NCCCc1cccc(C(F)(F)F)c1)c1cccc2ccccc12 [cinacalcet, reference compound]
- Effect on Ca2+ concentration-response curve (IP1): leftward shift

B1: Nb15: llama-derived CaSR-specific nanobody acting as PAM, SEQ ID NO:10 (protein)
VHH: QVQLVESGGGLVQAGGSLRLSCAASGRTFNNYHMAWFRQAPGKEREFAAAISRRAGTTYYADSVKGRFTISRDNAKNTVYLQMNSLKPEDTAVYYCAADPDTYGVSYLARKYDYWGQGTQVTVSS
modifications: CaSR Nb15
- Max. response (fold over basal ± S.E.M.), human ortholog (IP1 accumulation at EC20 Ca2+): 3.38 ± 0.36 fold over basal
- Potency (pEC50 ± S.E.M.), human ortholog [1]: 6.59 ± 0.03
- PAM activity in IP1 accumulation screen (EC20 Ca2+): potentiated IP1 accumulation

B2: Nb5: llama-derived CaSR-specific nanobody, weakest PAM, SEQ ID NO:8 (protein)
VHH: QVQLVESGGRLVQDGGSLRLSCAASGLTFSDYSMGWFRQVPGKEREFVAVIRRSNDSTYYADFVKGRFTISRDNAKNTVYLQMNSLQPEDTAVYSCAADRGGVGLTSAQTYAYWGQGTQVTVSS
modifications: CaSR Nb5
- Max. response (fold over basal ± S.E.M.), human ortholog (IP1 accumulation at EC20 Ca2+): 1.88 ± 0.05 fold over basal
- PAM activity in IP1 accumulation screen (EC20 Ca2+): potentiated IP1 accumulation

B3: Nb10: llama-derived CaSR-specific nanobody acting as PAM, SEQ ID NO:3 (protein)
VHH: QVQLVESGGGLVQPGDSLRVSCAASGGSFRSYAMAWFRQAPGKEREFVAAMSGTYGSTIYSDSMKGRFTISRDNAKKMVYLRMNSLRPEDTAVYYCAGYYSGAYYGTPKTDYTEYDSWGQGTQVTVSS
modifications: CaSR Nb10
- Max. response (fold over basal ± S.E.M.), human ortholog (IP1 accumulation at EC20 Ca2+): 3.36 ± 0.09 fold over basal
- Potency (pEC50 ± S.E.M.), human ortholog [1]: 6.33 ± 0.03
- PAM activity in IP1 accumulation screen (EC20 Ca2+): potentiated IP1 accumulation

B4: Nb37: llama-derived CaSR-specific nanobody acting as PAM, SEQ ID NO:4 (protein)
VHH: B3 VHH with Q39R, S61A, P88A
modifications: CaSR Nb37
- Max. response (fold over basal ± S.E.M.), human ortholog (IP1 accumulation at EC20 Ca2+): 4.04 ± 0.32 fold over basal
- Potency (pEC50 ± S.E.M.), human ortholog [1]: 6.22 ± 0.05
- PAM activity in IP1 accumulation screen (EC20 Ca2+): potentiated IP1 accumulation

B5: Nb2: llama-derived CaSR-specific nanobody acting as PAM, SEQ ID NO:9 (protein)
VHH: QVQLVESGGGLVQAGSSLRLSCAASGRTFSNYRMAWFRQAPGKEREFVAVISRGGGGADYADSVKGRFTISRDNVKNTVSLQMNSLKPEDTAVYFCAARISGFSYYTSVDRYDYWGQGTQVTVSS
modifications: CaSR Nb2
- Max. response (fold over basal ± S.E.M.), human ortholog (IP1 accumulation at EC20 Ca2+): 3.52 ± 0.21 fold over basal
- Potency (pEC50 ± S.E.M.), human ortholog [1]: 6.71 ± 0.08
- PAM activity in IP1 accumulation screen (EC20 Ca2+): potentiated IP1 accumulation

B6: Nb11: llama-derived CaSR-specific nanobody acting as PAM, SEQ ID NO:6 (protein)
VHH: QVQLVESGGGLVQAGGSLRLSCAASGRTFSTYRMGWFRQGPGKEREFVAAITATGVKTYYTDSVKGRFTISRDNAKNTVYLQMNSVQPEDTAVYSCAARIKAIFTAQQAATITDYDYWGQGTQVTVSS
modifications: CaSR Nb11
- Max. response (fold over basal ± S.E.M.), human ortholog (IP1 accumulation at EC20 Ca2+): 3.50 ± 0.17 fold over basal
- Potency (pEC50 ± S.E.M.), human ortholog [1]: 6.28 ± 0.07
- PAM activity in IP1 accumulation screen (EC20 Ca2+): potentiated IP1 accumulation

B7: Nb36: llama-derived CaSR-specific nanobody acting as PAM, SEQ ID NO:7 (protein)
VHH: QVQLVESGGGLVQAGESLRLSCAASGRTFSSYRMGWFRQGPGKEREFVAAITATGVRTYYADSVKGRFTISRDNAKNTVYLQMNSLQPDDTAVYLCAARRKAIFSVQQALTITDYDDWGQGTQVTVSS
modifications: CaSR Nb36
- Max. response (fold over basal ± S.E.M.), human ortholog (IP1 accumulation at EC20 Ca2+): 4.78 ± 0.21 fold over basal
- Potency (pEC50 ± S.E.M.), human ortholog [1]: 6.78 ± 0.17
- PAM activity in IP1 accumulation screen (EC20 Ca2+): potentiated IP1 accumulation

B8: Nb4: llama-derived CaSR-specific nanobody acting as PAM, SEQ ID NO:5 (protein)
VHH: QVQLVESGGGLVQAGGSLRLSCAASGRTFSTYRMGWFRQGLGKEREFVAAITANGVRTFYTDSVKGRFTISRDNAKNTLYLQMNSLQPDDTAVYLCAARRKGIFTVQQAQDITDWDYWGQGTQVTVSS
modifications: CaSR Nb4
- Max. response (fold over basal ± S.E.M.), human ortholog (IP1 accumulation at EC20 Ca2+): 3.74 ± 0.08 fold over basal
- Potency (pEC50 ± S.E.M.), human ortholog [1]: 7.08 ± 0.13
- PAM activity in IP1 accumulation screen (EC20 Ca2+): potentiated IP1 accumulation
- Effect on Ca2+ concentration-response curve (IP1): leftward shift
